# Test results taken from US20260242419A1, “A CYCLIC PEPTIDE FOR TRAPPING INTERLEUKIN-1 BETA” (Merck Sharp & Dohme LLC, priority 2023, published 2026).
# Starred links: 1 amine or outer side, 2 acyl side, 3 side chain; linkers in the order of their positions; H or OH if unused. Non-standard residues stand in square brackets, D forms with d. dProc3CH2Pyrim = (2R,3S)-3-(pyrimidin-5-ylmethyl)pyrrolidine-2-carboxylic acid, O=C([C@H]1[C@@H](Cc2cncnc2)CCN1[*:1])[*:2]; TyrEtNAc = (2S)-3-[4-(2-acetamidoethoxy)phenyl]-2-amino-propanoic acid, CC(=O)NCCOc1ccc(C[C@H](N[*:1])C(=O)[*:2])cc1; dProc3Bn = (2R,3S)-3-benzylpyrrolidine-2-carboxylic acid, O=C([C@H]1[C@@H](Cc2ccccc2)CCN1[*:1])[*:2]; dProc4Bn = (2R,4R)-4-benzylpyrrolidine-2-carboxylic acid, O=C([C@H]1C[C@@H](Cc2ccccc2)CN1[*:1])[*:2]; Phe(4-(5-CO2H-2-pyrimidyl)) = N[C@@H](Cc1ccc(-c2ncc(C(=O)O)cn2)cc1)C(=O)O; Trp(βS-Me,4-F) = C[C@@H](c1c[nH]c2cccc(F)c12)[C@H](N)C(=O)O; 3Aminoazetidine3carboxyl = O=C(C1(N[*:1])CN([*:3])C1)[*:2]; Bip(4'-COOH) = N[C@@H](Cc1ccc(-c2ccc(C(=O)O)cc2)cc1)C(=O)O; Ala(1-bicyclo(1.1.1)pentyl) = N[C@@H](CC12CC(C1)C2)C(=O)O; dPro(4R-Bzl(4-F)) = O=C(O)[C@H]1C[C@@H](Cc2ccc(F)cc2)CN1; Ala(pyrimidin-5-yl) = N[C@@H](Cc1cncnc1)C(=O)O; Phe(4-COOH) = N[C@@H](Cc1ccc(C(=O)O)cc1)C(=O)O; Pro(cis-4-F) = O=C(O)[C@@H]1C[C@H](F)CN1; 2Pal = N[C@@H](Cc1ccccn1)C(=O)O; 3Pal = N[C@@H](Cc1cccnc1)C(=O)O; 4Pal = N[C@@H](Cc1ccncc1)C(=O)O; Orn = NCCC[C@H](N)C(=O)O; Dab = NCC[C@H](N)C(=O)O; Aib = CC(C)(N)C(=O)O
# Target: Recombinant human IL-1β (BioLegend 579404) (human, UniProt P01584 117-269)
# Test: cell-based or functional assay
row,Binder,MRC5 IC50 [nM]
1,"cyclo([TyrEtNAc][4Pal][Phe(4-COOH)][Pro(cis-4-F)][Trp(βS-Me,4-F)][Aib]EW[Aib][Ala(pyrimidin-5-yl)]QSG[dProc3Bn]) (SMILES CC(=O)NCCOc1ccc(C[C@@H]2NC(=O)[C@H]3[C@@H](Cc4ccccc4)CCN3C(=O)CNC(=O)[C@H](CO)NC(=O)[C@H](CCC(N)=O)NC(=O)[C@H](Cc3cncnc3)NC(=O)C(C)(C)NC(=O)[C@H](Cc3c[nH]c4ccccc34)NC(=O)[C@H](CCC(=O)O)NC(=O)C(C)(C)NC(=O)[C@H]([C@@H](C)c3c[nH]c4cccc(F)c34)NC(=O)[C@@H]3C[C@H](F)CN3C(=O)[C@H](Cc3ccc(C(=O)O)cc3)NC(=O)[C@H](Cc3ccncc3)NC2=O)cc1) [SEQ ID NO: 77]",0.079
2,"cyclo([Bip(4'-COOH)][4Pal][Phe(4-COOH)]G[Pro(cis-4-F)][Trp(βS-Me,4-F)][Aib]EW[Aib][3Pal]Q[Dab]G[dPro(4R-Bzl(4-F))]) [SEQ ID NO: 72]",0.027
3,"cyclo([TyrEtNAc][4Pal][Phe(4-COOH)][Pro(cis-4-F)][Trp(βS-Me,4-F)][Aib]EW[Aib][Ala(pyrimidin-5-yl)]Q[Dab]G[dProc3Bn]) (SMILES CC(=O)NCCOc1ccc(C[C@@H]2NC(=O)[C@H]3[C@@H](Cc4ccccc4)CCN3C(=O)CNC(=O)[C@H](CCN)NC(=O)[C@H](CCC(N)=O)NC(=O)[C@H](Cc3cncnc3)NC(=O)C(C)(C)NC(=O)[C@H](Cc3c[nH]c4ccccc34)NC(=O)[C@H](CCC(=O)O)NC(=O)C(C)(C)NC(=O)[C@H]([C@@H](C)c3c[nH]c4cccc(F)c34)NC(=O)[C@@H]3C[C@H](F)CN3C(=O)[C@H](Cc3ccc(C(=O)O)cc3)NC(=O)[C@H](Cc3ccncc3)NC2=O)cc1) [SEQ ID NO: 78]",0.036
4,"cyclo([Bip(4'-COOH)][4Pal][Phe(4-COOH)]G[Pro(cis-4-F)][Trp(βS-Me,4-F)][Aib]EW[Aib][Ala(pyrimidin-5-yl)]QRG[dPro(4R-Bzl(4-F))]) (SMILES C[C@@H](c1c[nH]c2cccc(F)c12)[C@@H]1NC(=O)[C@@H]2C[C@H](F)CN2C(=O)CNC(=O)[C@H](Cc2ccc(C(=O)O)cc2)NC(=O)[C@H](Cc2ccncc2)NC(=O)[C@H](Cc2ccc(-c3ccc(C(=O)O)cc3)cc2)NC(=O)[C@H]2C[C@@H](Cc3ccc(F)cc3)CN2C(=O)CNC(=O)[C@H](CCCNC(=N)N)NC(=O)[C@H](CCC(N)=O)NC(=O)[C@H](Cc2cncnc2)NC(=O)C(C)(C)NC(=O)[C@H](Cc2c[nH]c3ccccc23)NC(=O)[C@H](CCC(=O)O)NC(=O)C(C)(C)NC1=O) [SEQ ID NO: 75]",0.056
5,"cyclo([Bip(4'-COOH)][4Pal][Phe(4-COOH)]G[Pro(cis-4-F)][Trp(βS-Me,4-F)][Aib]EW[Aib][Ala(pyrimidin-5-yl)]Q[Dab]G[dProc3CH2Pyrim]) (SMILES C[C@@H](c1c[nH]c2cccc(F)c12)[C@@H]1NC(=O)[C@@H]2C[C@H](F)CN2C(=O)CNC(=O)[C@H](Cc2ccc(C(=O)O)cc2)NC(=O)[C@H](Cc2ccncc2)NC(=O)[C@H](Cc2ccc(-c3ccc(C(=O)O)cc3)cc2)NC(=O)[C@H]2[C@@H](Cc3cncnc3)CCN2C(=O)CNC(=O)[C@H](CCN)NC(=O)[C@H](CCC(N)=O)NC(=O)[C@H](Cc2cncnc2)NC(=O)C(C)(C)NC(=O)[C@H](Cc2c[nH]c3ccccc23)NC(=O)[C@H](CCC(=O)O)NC(=O)C(C)(C)NC1=O) [SEQ ID NO: 71]",0.058
6,"cyclo([Bip(4'-COOH)][4Pal][Phe(4-COOH)]G[Pro(cis-4-F)][Trp(βS-Me,4-F)][Aib]EW[Aib][4Pal]QRG[dPro(4R-Bzl(4-F))]) (SMILES C[C@@H](c1c[nH]c2cccc(F)c12)[C@@H]1NC(=O)[C@@H]2C[C@H](F)CN2C(=O)CNC(=O)[C@H](Cc2ccc(C(=O)O)cc2)NC(=O)[C@H](Cc2ccncc2)NC(=O)[C@H](Cc2ccc(-c3ccc(C(=O)O)cc3)cc2)NC(=O)[C@H]2C[C@@H](Cc3ccc(F)cc3)CN2C(=O)CNC(=O)[C@H](CCCNC(=N)N)NC(=O)[C@H](CCC(N)=O)NC(=O)[C@H](Cc2ccncc2)NC(=O)C(C)(C)NC(=O)[C@H](Cc2c[nH]c3ccccc23)NC(=O)[C@H](CCC(=O)O)NC(=O)C(C)(C)NC1=O) [SEQ ID NO: 76]",0.059
7,"cyclo([Bip(4'-COOH)][4Pal][Phe(4-COOH)]G[Pro(cis-4-F)][Trp(βS-Me,4-F)][Aib]EW[Aib][Ala(pyrimidin-5-yl)]Q[Orn]G[dPro(4R-Bzl(4-F))]) (SMILES C[C@@H](c1c[nH]c2cccc(F)c12)[C@@H]1NC(=O)[C@@H]2C[C@H](F)CN2C(=O)CNC(=O)[C@H](Cc2ccc(C(=O)O)cc2)NC(=O)[C@H](Cc2ccncc2)NC(=O)[C@H](Cc2ccc(-c3ccc(C(=O)O)cc3)cc2)NC(=O)[C@H]2C[C@@H](Cc3ccc(F)cc3)CN2C(=O)CNC(=O)[C@H](CCCN)NC(=O)[C@H](CCC(N)=O)NC(=O)[C@H](Cc2cncnc2)NC(=O)C(C)(C)NC(=O)[C@H](Cc2c[nH]c3ccccc23)NC(=O)[C@H](CCC(=O)O)NC(=O)C(C)(C)NC1=O) [SEQ ID NO: 8]",0.026
8,"cyclo([Bip(4'-COOH)][4Pal][Phe(4-COOH)]G[Pro(cis-4-F)][Trp(βS-Me,4-F)][Aib]EW[Aib][2Pal]Q[Dab]G[dPro(4R-Bzl(4-F))]) (SMILES C[C@@H](c1c[nH]c2cccc(F)c12)[C@@H]1NC(=O)[C@@H]2C[C@H](F)CN2C(=O)CNC(=O)[C@H](Cc2ccc(C(=O)O)cc2)NC(=O)[C@H](Cc2ccncc2)NC(=O)[C@H](Cc2ccc(-c3ccc(C(=O)O)cc3)cc2)NC(=O)[C@H]2C[C@@H](Cc3ccc(F)cc3)CN2C(=O)CNC(=O)[C@H](CCN)NC(=O)[C@H](CCC(N)=O)NC(=O)[C@H](Cc2ccccn2)NC(=O)C(C)(C)NC(=O)[C@H](Cc2c[nH]c3ccccc23)NC(=O)[C@H](CCC(=O)O)NC(=O)C(C)(C)NC1=O) [SEQ ID NO: 73]",0.031
9,"cyclo([TyrEtNAc][4Pal][Phe(4-COOH)][Pro(cis-4-F)][Trp(βS-Me,4-F)][Aib]EW[Aib]RQ[Dab]G[dPro(4R-Bzl(4-F))]) (SMILES CC(=O)NCCOc1ccc(C[C@@H]2NC(=O)[C@H]3C[C@@H](Cc4ccc(F)cc4)CN3C(=O)CNC(=O)[C@H](CCN)NC(=O)[C@H](CCC(N)=O)NC(=O)[C@H](CCCNC(=N)N)NC(=O)C(C)(C)NC(=O)[C@H](Cc3c[nH]c4ccccc34)NC(=O)[C@H](CCC(=O)O)NC(=O)C(C)(C)NC(=O)[C@H]([C@@H](C)c3c[nH]c4cccc(F)c34)NC(=O)[C@@H]3C[C@H](F)CN3C(=O)[C@H](Cc3ccc(C(=O)O)cc3)NC(=O)[C@H](Cc3ccncc3)NC2=O)cc1) [SEQ ID NO: 74]",0.072

# Second part, the binder after the results:
row,MRC5 IC50 [nM],Binder
1,0.059,"cyclo([TyrEtNAc][4Pal][Phe(4-COOH)][Pro(cis-4-F)][Trp(βS-Me,4-F)][Aib]EW[Aib][Ala(pyrimidin-5-yl)]QSG[dProc4Bn]) (SMILES CC(=O)NCCOc1ccc(C[C@@H]2NC(=O)[C@H]3C[C@@H](Cc4ccccc4)CN3C(=O)CNC(=O)[C@H](CO)NC(=O)[C@H](CCC(N)=O)NC(=O)[C@H](Cc3cncnc3)NC(=O)C(C)(C)NC(=O)[C@H](Cc3c[nH]c4ccccc34)NC(=O)[C@H](CCC(=O)O)NC(=O)C(C)(C)NC(=O)[C@H]([C@@H](C)c3c[nH]c4cccc(F)c34)NC(=O)[C@@H]3C[C@H](F)CN3C(=O)[C@H](Cc3ccc(C(=O)O)cc3)NC(=O)[C@H](Cc3ccncc3)NC2=O)cc1) [SEQ ID NO: 79]"
2,0.054,"cyclo([Phe(4-(5-CO2H-2-pyrimidyl))][Ala(1-bicyclo(1.1.1)pentyl)][Phe(4-COOH)]G[Pro(cis-4-F)][Trp(βS-Me,4-F)][Aib]EW[Aib][Ala(pyrimidin-5-yl)]Q[Dab]G[dPro(4R-Bzl(4-F))]) (SMILES C[C@@H](c1c[nH]c2cccc(F)c12)[C@@H]1NC(=O)[C@@H]2C[C@H](F)CN2C(=O)CNC(=O)[C@H](Cc2ccc(C(=O)O)cc2)NC(=O)[C@H](CC23CC(C2)C3)NC(=O)[C@H](Cc2ccc(-c3ncc(C(=O)O)cn3)cc2)NC(=O)[C@H]2C[C@@H](Cc3ccc(F)cc3)CN2C(=O)CNC(=O)[C@H](CCN)NC(=O)[C@H](CCC(N)=O)NC(=O)[C@H](Cc2cncnc2)NC(=O)C(C)(C)NC(=O)[C@H](Cc2c[nH]c3ccccc23)NC(=O)[C@H](CCC(=O)O)NC(=O)C(C)(C)NC1=O) [SEQ ID NO: 82]"
3,0.048,"cyclo([TyrEtNAc][4Pal][Phe(4-COOH)][Pro(cis-4-F)][Trp(βS-Me,4-F)][Aib]EW[Aib][Ala(pyrimidin-5-yl)]Q[Dab]G[dProc4Bn]) (SMILES CC(=O)NCCOc1ccc(C[C@@H]2NC(=O)[C@H]3C[C@@H](Cc4ccccc4)CN3C(=O)CNC(=O)[C@H](CCN)NC(=O)[C@H](CCC(N)=O)NC(=O)[C@H](Cc3cncnc3)NC(=O)C(C)(C)NC(=O)[C@H](Cc3c[nH]c4ccccc34)NC(=O)[C@H](CCC(=O)O)NC(=O)C(C)(C)NC(=O)[C@H]([C@@H](C)c3c[nH]c4cccc(F)c34)NC(=O)[C@@H]3C[C@H](F)CN3C(=O)[C@H](Cc3ccc(C(=O)O)cc3)NC(=O)[C@H](Cc3ccncc3)NC2=O)cc1) [SEQ ID NO: 80]"
4,0.049,"cyclo([Phe(4-(5-CO2H-2-pyrimidyl))][4Pal][Phe(4-COOH)]G[Pro(cis-4-F)][Trp(βS-Me,4-F)][Aib]EW[3Aminoazetidine3carboxyl][4Pal]Q[Dab]G[dPro(4R-Bzl(4-F))]) (SMILES C[C@@H](c1c[nH]c2cccc(F)c12)[C@@H]1NC(=O)[C@@H]2C[C@H](F)CN2C(=O)CNC(=O)[C@H](Cc2ccc(C(=O)O)cc2)NC(=O)[C@H](Cc2ccncc2)NC(=O)[C@H](Cc2ccc(-c3ncc(C(=O)O)cn3)cc2)NC(=O)[C@H]2C[C@@H](Cc3ccc(F)cc3)CN2C(=O)CNC(=O)[C@H](CCN)NC(=O)[C@H](CCC(N)=O)NC(=O)[C@H](Cc2ccncc2)NC(=O)C2(CNC2)NC(=O)[C@H](Cc2c[nH]c3ccccc23)NC(=O)[C@H](CCC(=O)O)NC(=O)C(C)(C)NC1=O) [SEQ ID NO: 81]"
